B1: DHF9 (designed binder)
chain: MGLILELAKLSLERARLASEAGDRVEFKIAAEKALLLAKVLVLQAKKEGDPELVLEAAKVALRVAELAAKNGDKEVFKKAAESALEVAKRLVEVASKEGDPELVLEAAKVALRVAELAAKNGDKEVFKKAAESALEVAKRLVEVASKEGDPELVEEAAKVAEEVRKLAKKQGDEEVYEKARETAREVKEELKRVREEKGDLE
notes: vector pET28b; forms a homo-polymer
B2: DHF52 (designed binder)
chain: SLKELLELERVAVEAIVAAAEGNTMEVIEQLQRAMLIAVLSGTTSAVKLALEVVARVAIEAARIGNTDAVRIALSVALTIAVISGTTEAVKLALEVVARVAIEAARRGNTDAVREALEVALEIARESGTEEAVRLALEVVKRVSDEAKKQGNEDAVKEAEEVRKKIEEESG
notes: vector pCDB24 (SUMO fusion); forms a homo-polymer
B3: DHF51 (designed binder)
chain: AVDQMIRVIVLVKEAEEALLNAKLLGSEMALTLALRTAEEAARVAKTVLELAEKDGDPVVALLAVELVVRVAELLLRIAKESGSEEALERALRVAEEAARLAKRVLELAEKQGDPEVALRAVELVVRVAELLLRIAKESGSEEALERALRVAEEAARLAKRVLELAEKQGDPEVARRAVELVKRVAELLERIARESGSEEAKERAERVREEARELQERVKELREREG
notes: as for B2
B4: DHF76 (designed binder)
chain: MGLEKEVLRVKLVKICVLLARLKGDDTEEAREAARQAFEVVRLAAELAGIDSSEVLELAIRLIKECVENAQREGYDISLACMLAALAFKRVAEAAKRAGITSSEVLELAIRLIKECVENAQRDGYDISEACRAAAEAFKRVAEAAKRAGITSSETLKRAIEEIRKRVEEAQREGNEISEACRQAAEEFRKKAEELKRLE
notes: as for B1
B5: DHF5 (designed binder)
chain: ALDLLARVIVLVMEAVKLLVLAVIMGLEMILRVALRLAEEAARAAKAVLLLAEVEGDPEVALKAVELVVRVAELLLRIAKESGSEEALERALRVAEEAARLAKRVLELAEKQGDPEVALRAVELVVRVAELLLRIAKESGSEEALERALRVAEEAARLAKRVLELAEKQGDPEVARRAVELVKRVAELLERIARESGSEEAKERAERVREEARELQERVKELREREG
notes: as for B2
B6: DHF48 (designed binder)
chain: MAVEEAIRVMRLVREAEQVLLQAKMMGSERVLEMALRTAEEAAREAKLVLAVAELEGDPVVALIAVELVVRVAELLLRIAKESGSEEALERALRVAEEAARLAKRVLELAEKQGDPEVALRAVELVVRVAELLLRIAKESGSEEALERALRVAEEAARLAKRVLELAEKQGDPEVARRAVELVKRVAELLERIARESGSEEAKERAERVREEARELQERVKELREREGLE
notes: as for B1
B7: DHF17 (designed binder)
chain: MGHHHHHHSSGSSEKEELRERLVEIVVALAKAKGDDTELAREAAREAFELVREAAERAGIDSSMVLILAIQLILEVVANAAKEGYDISLAALAAAEAFKRVAEAAKRAGITSSMVLILAIRLIKEVVENAQREGYDISLAALAAAEAFKRVAEAAKRAGITSSMTLMRAIEEIRKRVEEAQREGNDISEAARQAAEEFIIKAVVLKARGDV
notes: as for B1
B8: DHF91 (designed binder)
chain: MGDERRELEKVAVKAIMAAMLGNTDEVREQLQRALEIARESGTLLAVVLALEVVARVAIEAARKGNTDAVREALEVALEIARESGTKVAVVLALEVVARVAIEAARRGNVLAVILALEVALEIARESGTEEAALLAVEVVVRVSDEAKKQGNAVAVAVAEQVAKKILE
notes: vector pET28b; forms a homo-polymer; cryoEM PDB 6E9X
B9: DHF8 (designed binder)
chain: MGLELSLVINLVLLANLLHLQAMMKGSSEDLEKALRTAEEAAREAKKVLEQAEKNGDPEVALRAVELVVIVAITLLLIAISSGSEEALERALRVAEEAARLAKRVLELAEKAGDPEVALRAVELVVRVAELLLRIAKESGSEEALERALRVAEEAARLAKRVLELAEKQGDPEVARRAVELVKRVAELLERIARESGSEEAKERAERVREEARELQERVKELREREGLE
notes: as for B1
B10: DHF16 (designed binder)
chain: MGQILMKAKLSLVKAAEASLSGDELEFRIAAETALVLAKLLVLQAKKKGDPELVLEAAKVALRVAELAAKNGDKEVFKKAAESALEVAKRLVEVASKEGDPELVLEAAKVALRVAELAAKNGDKEVFKKAAESALEVAKRLVEVASKEGDPELVEEAAKVAEEVRKLAKKQGDEEVYEKARETAREVKEELKRVREEKGLE
notes: as for B1
B11: DHF50 (designed binder)
chain: AIVQLMTVIAMAVIANALLIRAIVNGSAEDLEKALRTAEEAAREAKKVLEQAEKDGDPEVALRAVELVVLVAVNLLLIAKESGSEEALERALRVAEEAARLAKRVLELAEKVGDPEVALRAVELVVRVAELLLRIAKESGSEEALERALRVAEEAARLAKRVLELAEKQGDPEVARRAVELVKRVAELLERIARESGSEEAKERAERVREEARELQERVKELREREG
notes: as for B2
B12: DHF107 (designed binder)
chain: MGPEEILERAKESLERAREASERGDEMEFRIAAQKALELARQLVLQALAEGDPELVLEAAKVALRVAELAAKNGDKEVFKKAAESALEVAKVLVLVASKEGKPELVLEAAKVALRVAVLAAMNGDKEVFKKAAESALEVAKRLVEVASKEGDPELVLEAAKVAEKVRVLAAVQGDEEVYEKARETAREVKEELKRVMEEKGLE
notes: as for B1
B13: DHF25 (designed binder)
chain: ARVVLKRVEKLVKEAETLLLVAIMKGSEEDLEKALRTAEEAAREAKKVLVLAVVVGDPEVALRAVELVVRVAELLLLIAIISGSEEALERALRVAEEAARLAKRVLELAENQGDPEVALRAVELVVRVAELLLMIAKVSGSEEALERALRVAEEAARLAKRVLELAEKQGDPEVARRAVELVKRVAELLERIARESGSEEAKERAERVREEALQLQARVMNLREREG
notes: as for B2
B14: DHF62 (designed binder)
chain: MGIVLVIESLEAEVRLEKAKVLSVLARVRGDLKELAEALIEEARAVQELARVACEKGNSEEAERASEKAQRVLEEARKVSEEAREQGDDEVLALALIAIALAVLALAEVACCRGNSEEAERASEKAQRVLEEARKVSEEAREQGDDEVLALALIAIALAVLALAEVACCRGNKEEAERAYEDARRVEEEARKVKESAEEQGDSEVKRLAEEAEQLAREARRHVQECRGLE
notes: as for B1
B15: DHF78 (designed binder)
chain: MGELVLLVAKLALAVAVQASALGDEEVFRKAAEKALELAKRLVELAKLIGDPELVLEAAKVALEVAELAAKNGDKEVFKKAAESALEVAKRLVEVASKEGDPELVLEAAKVALRVAELAAKNGDKEVFKKAAESALEVAKRLVEVASKEGDPELVEEAAKVAEEVRKLAKKQGDEEVYEKARETAREVKEELKRVREEKGLE
notes: as for B1
B16: DHF82 (designed binder)
chain: MGPEEILESAKESLERAREASEAGLELVFRLAAEVALELAKRLVEQAKKEGDPELVLEAAKVALRVAELAAKNGDKEVFKKAAESALEVAKRLVEVASKEGDPELVLEAAKVALRVAELAAKNGDKEVFKKAAESALEVAKRLVEVASKEGDPTLVIMALIVAEEVIKLASKQGDELVMLKAVETAKEVKEEAMRVMLEKGLE
notes: as for B1
B17: DHF58 (designed binder)
chain: MELLRVVMLVKEAEELLTLAVIKGSEDDLQKALRTAVEAAREAVKVLLQAVKRGDPEVALRAVELVVRVAELLLRIAKESGSELALKMALLVAEEAARLAKIVLELAEKQGDPEVALRAVELVVRVAELLLRIAKESGSEEALERALRVAEEAARLAKRVLELAEKQGDPEVARRAVELVKRVAELLERIARESGSEEAKERAERVREEARELQERVKELREREGLE
notes: vector pET28b; forms a homo-polymer; cryoEM PDB 6E9T (4-repeat structure); also called DHF58 four-repeat protomer
B18: DHF58-GFP (designed binder)
chain: B17 chain
notes: expressed in E. coli; not shown: green fluorescent protein
B19: DHF77 (designed binder)
chain: MGDSMKLVMLLLKKAVTLAKLNNDDMVALEIERAAKQIVLALAVNKSDEMAKVMLALAKAVLLAAKNNDDEVAREIARAAAEIVEALKENNSDEMAKVMLALAKAVLLAAKNNDDEVAREIARAAAEIVEALRENNSDEMAKKMLELAKRVLDAAKNNDDETAREIARQAAEEVEADRENLE
notes: as for B1
B20: DHF49 (designed binder)
chain: MGHHHHHHSSGSDEEEARELIERAAEAAKRAVEAAERTGDPNVVELAKELVRLAQEAAEEVKRDPSSSDVNEALKLIVEAIEAAVRALEAAERTGDPVVRLLARELVRLAVEAAEEVQRNPSSSDVNEALKLIVEAIEAAVRALEAAERTGDPEVRELARELVRLAVEAAEEVQRNPSSEQVNEALKKIVKAIQEAVESLREAEESGDPEKRDKARLRVLEAVIRAMVVQIN
notes: as for B1
B21: DHF20 (designed binder)
chain: MDEMKARLLIERAKEAAERAQEAAERTGDPLVRLLAEMLKRLAQEAAEEVKRDPSSSDVNEALKLIVEAIEAAVRALEAAERTGDPEVRELASELVRLAVEAAEEVQRNPSSSDVNEALKLIVEAIEAAVRALEAAERTGDPRVRELARELVRLAVEAAEEVQRNPSSVEVALALLKIVKAIEEAVESLREAEESGDPMKRLEAALRVREAVERAEEVQRN
notes: as for B2

Columns and labels:
[1] = biological target: the molecule itself; test: negative stain EM; 1 = filaments observed (self-assembly)
Source text: The designs were expressed in Escherichia coli under the control of a T7 promoter and purified using immobilized metal affinity chromatography (IMAC). […] IMAC eluates were concentrated, and filament formation was monitored by negative stain electron microscopy (EM); insoluble designs were characterized by EM either directly in the initial insoluble fraction, or after solubilization in guanidine hydrochloride, IMAC, and subsequent removal of denaturant.
Negative Stain Electron Microscopy. Soluble fractions were concentrated and insoluble fractions were resuspended in buffer (25 mM Tris, 75 mM NaCl, pH 8) for EM screening. A drop of 6 μL (1 μl sample instantly diluted with 5 μl of buffer) was applied on negatively glow discharged, carbon-coated 200-mesh copper grids (Ted Pella, Inc.), washed with Milli-Q™ Water and stained using 0.75% uranyl formate as described previously (28). The screening was performed on either a 120 kV Tecnai Spirit™ T12 transmission electron microscope (FEI, Hillsboro, Oreg.) or a 100 kV Morgagni M268 transmission electron microscope (FEI, Hillsboro, Oreg.). Images were recorded on a bottom mount Teitz CMOS™ 4 k camera system. The contrast of the images was enhanced in the Fiji software (29) for clarity.

[2] = biological target: the molecule itself; test: fluorescence microscopy in living E. coli (self-assembly)

Row | Protein | binding result [1] | binding result [2]
1 | B1 | binds | 
2 | B2 | binds | 
3 | B3 | binds | 
4 | B4 | binds | 
5 | B5 | binds | 
6 | B6 | binds | 
7 | B7 | binds | 
8 | B8 | binds | 
9 | B9 | binds | 
10 | B10 | binds | 
11 | B11 | binds | 
12 | B12 | binds | 
13 | B13 | binds | 
14 | B14 | binds | 
15 | B15 | binds | 
16 | B16 | binds | 
17 | B17 | binds | 
18 | B18 |  | binds
19 | B19 | binds | 
20 | B20 | binds | 
21 | B21 | binds | 

Source: US20210324011A1 (University of Washington, published 2021)
